According to US12576154B2, “Conjugates of PSMA-binding moieties with cytotoxic agents” (PHILOCHEM AG, priority 2022, dated 2026):

Assays:
LNCaP tumor (PSMA+) = assay: MMAE release from conjugates in LNCaP tumor model (biodistribution by LC-MS); format: in vivo, mice
Procedure: LNCaP tumor cells were grown to 80% confluence and detached with Trypsin-EDTA 0.05%. Cells were resuspended in PBS at a density of 30×10^6 cells/mL. The cell suspension was further diluted 1:1 with Matrigel. 200 μL of LNCaP cells (3×10^6 cells) were injected subcutaneously in the left flank of female athymic Balb/c AnNRj-Foxn1 mice (6 to 8 weeks of age). Tumors were grown until volumes of 200-300 mm^3 were observed.
0.1 ml of 50 μM solutions (2% DMSO, PBS) of the four Conjugates (1-4) were injected intravenously into 4 of the mice (1 mouse per SMDC). The animals were sacrificed after 24 h and the following organs were extracted: blood, LNCaP tumor (PSMA+), heart, lungs, liver, kidney, spleen, stomach. The blood fraction was centrifuged, and the plasma (supernatant) was extracted. The organs were preserved at −80° C. before being used for further analysis.
Frozen plasma or mouse tissues (˜50 mg) were thawed and treated with 600 μL of an aqueous solution containing 95% acetonitrile (ACN), and 0.1% HCOOH were added to induce protein precipitation. 50 μL of a solution of d8-MMAE, 50 nM) was added as internal standard. Samples were then homogenized with a tissue lyser for 15 minutes at 30 Hz. After homogenization, samples were centrifuged (21'000 g for 10 minutes). The supernatant was collected and dried at room temperature with a rotary evaporator. Pellets were then resuspended in 1 mL of an aqueous solution containing 3% ACN and 0.1% of TFA and subsequently purified on Oasis HLB SPE columns. Eluates were dried under vacuum at room temperature. […] Peak areas of analytes and internal standards were integrated, and corresponding ratios were calculated. The ratios were then transformed into pmol/g of wet tissue using single-concentration external calibration points and corrected by the total weight of the sample analysed. The percentage of injected dose per gram (% ID/g) was finally calculated by normalizing the value based on the total dose injected into the mouse. […]

HT1080.hPSMA xenografts = assay: Comparative therapy experiment in mice bearing HT1080.hPSMA xenografts (tumor volume); format: in vivo; conditions: 250 nmol/kg i.v. on days 8, 10, 12 after tumor implantation, n=5
Procedure: HT1080.hPSMA tumor cells were grown to 90% confluence and detached with Trypsin-EDTA 0.05%. Cells were resuspended in Hank's Balanced Salt Solution (HBSS) at a 5×10^7 cells/mL density. 100 μL of HT1080.hPSMA cells (5×10^6 cells) were injected subcutaneously in the right flank of female athymic Balb/c AnNRj-Foxn1 mice (6 to 8 weeks of age). Tumors were grown until volumes of […].
Tumor-bearing mice were randomized into groups of 5 and 0.1 mL of 50 μM solutions (2% DMSO, PBS, 250 nmol/kg) of the four conjugates (1 to 4), or saline solution (0.9% NaCl) was injected intravenously three times with 1-day break in between (days 8, 10, and 12 after tumor implantation).

## CC[C@H](C)[C@@H]([C@@H](CC(=O)N1CCC[C@H]1[C@H](OC)[C@@H](C)C(=O)N[C@H](C)[C@@H](O)c1ccccc1)OC)N(C)C(=O)[C@@H](NC(=O)[C@H](C(C)C)N(C)C(=O)OCc1ccc(NC(=O)[C@@H]2CCCN2C(=O)CNC(=O)CCCCCN2C(=O)CC(SC[C@H](N)C(=O)NCCCCCC(=O)NC[C@H]3CC[C@H](C(=O)N[C@@H](Cc4ccc5ccccc5c4)C(=O)NCCCC[C@H](NC(=O)N[C@@H](CCC(=O)O)C(=O)O)C(=O)O)CC3)C2=O)cc1)C(C)C (stereo partly shown) [Conjugate 1]
LNCaP tumor (PSMA+); 24 h after intravenous injection, LNCaP tumor model, n=3
  MMAE release, experiment repeated with three mice each: confirmed
LNCaP tumor (PSMA+); 24 hours after intravenous injection, 0.1 ml of 50 μM, 1 mouse per SMDC, LNCaP tumor and organs
  MMAE release (quantitative biodistribution): Significant release of MMAE
HT1080.hPSMA xenografts
  Complete remissions: 1/5
  Therapeutic efficacy (tumor volume change): significant shrinkage of the tumors of all 5 mice
